Settings: Homo sapiens; pH 2.7; Thermal; DSC; glycine 0.05 M; reversible: yes; whole UniProt chain shown

B1: Lysozyme C wild type, P61626 (protein)
chain: MKALIVLGLVLLSVTVQGKVFERCELARTLKRLGMDGYRGISLANWMCLAKWESGYNTRATNYNAGDRSTDYGIFQINSRYWCNDGKTPGAVNACHLSCSALLQDNIADAVACAKRVVRDPQGIRAWVAWRNRCQNRDVRQYVQGCGV
**Q.** With B1 as the protein, how does the Tm read?
**A.** 64.9 °C

**Q.** And the “heat capacity change of unfolding” value?
**A.** 1.58 kcal/mol/K

**Q.** And the “unfolding enthalpy (calorimetric)” value?
**A.** 114 kcal/mol

**Q.** What about the “unfolding enthalpy (van 't Hoff)” value of the same protein?
**A.** 120 kcal/mol

Reference: FireProtDB (doi:10.1021/bi9621829)
